Laboratory results from patent US20100136573.

System: Recombinant human GST-TDP-43 (N-terminal GST tag, full length), non-phosphorylated
Sequence (chain, as listed by the source): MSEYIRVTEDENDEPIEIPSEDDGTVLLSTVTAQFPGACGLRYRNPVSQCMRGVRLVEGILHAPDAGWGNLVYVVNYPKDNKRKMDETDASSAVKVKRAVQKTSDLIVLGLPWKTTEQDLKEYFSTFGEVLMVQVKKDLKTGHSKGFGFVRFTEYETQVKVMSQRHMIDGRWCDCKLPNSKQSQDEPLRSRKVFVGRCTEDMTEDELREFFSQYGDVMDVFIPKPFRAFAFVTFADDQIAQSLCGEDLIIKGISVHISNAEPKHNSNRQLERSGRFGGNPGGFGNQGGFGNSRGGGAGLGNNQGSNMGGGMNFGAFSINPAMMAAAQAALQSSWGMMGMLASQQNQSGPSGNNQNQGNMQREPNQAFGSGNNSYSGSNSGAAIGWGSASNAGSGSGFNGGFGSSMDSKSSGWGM

recombinant casein kinase 1 (CK1; New England BioLabs, Inc)
in vitro phosphorylation, read by anti-pTDP-43 Western blot: CK1 effectively phosphorylated GST-TDP-43 at S409/S410 in vitro
